What all share (assay): SEC; Superdex S200 10/300 GL, buffer A (20 mM Tris-HCl pH 7.5, 18% glycerol) with 150 mM NaCl; mass from calibration with standard proteins; quaternary structure of the purified protein
The target in test [1] is FdpA (CD1157), class A flavodiiron protein of Clostridioides difficile (Clostridioides difficile).
Test [2] addresses revRbr1 (CD1474), reverse rubrerythrin 1 of Clostridioides difficile (Clostridioides difficile (strain 630Δerm genomic DNA)).
Test [3] has as its target revRbr2 (CD1524), reverse rubrerythrin 2 of Clostridioides difficile (Clostridioides difficile (strain 630Δerm genomic DNA)).

Broadly, the stoichiometry N is the number of molecules, sites or subunits per partner or assembly.

For “FdpA (CD1157), class A flavodiiron protein of Clostridioides difficile (enzyme)”, the stoichiometry N in test [1] amounted to 2.
The substance “revRbr1 (CD1474), reverse rubrerythrin 1 of Clostridioides difficile (enzyme)” gave a stoichiometry N in test [2] of 4.
With “revRbr2 (CD1524), reverse rubrerythrin 2 of Clostridioides difficile (enzyme)”, the stoichiometry N in test [3] was determined as 4.

The record behind these values is publication PMC7482061.
